These results are taken from the supplement of paper PMC11780869.

This series has as its system Bacillus subtilis. Kind of series: cleaved RNA product abundance (RNA/gDNA barcode ratio) relative to median wild-type variant (ratio to wild type); higher = more accumulation of the downstream cleavage product. In outline: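 Cleaved product abundance was measured with barcoded reporter mRNAs (truncated aprE or tetM) carrying mutagenized RNase Y cleavage-site windows in the B. subtilis chromosome. Cultures in LB at 37°C grew from OD600 0.0003 to 0.3. Gel-selected cleaved RNA was reverse transcribed and barcode-sequenced with genomic DNA barcodes, and the RNA:gDNA barcode ratio per construct was scaled to the median construct bearing the unmutated site.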

Where [1] appears, read: experiment (reporter, strain, medium): exp 4a: truncated aprE reporter, strain BJT201 with 2% xylose (RNase J1 expressed), cleavage site: cggR-gapA (positions -7 to +36 mutated).
The mark [2] stands for this setting: experiment (reporter, strain, medium): exp 8a: truncated aprE reporter, strain BJT201 with 2% xylose (RNase J1 expressed), cleavage site: glnRA (positions -5 to +31 mutated).
Setting [3] is: experiment (reporter, strain, medium): exp 2b: truncated aprE reporter, strain BJT200, cleavage site: cggR-gapA (positions -7 to +36 mutated).
The mark [4] stands for this setting: experiment (reporter, strain, medium): exp 6: tetM reporter, strain 168, cleavage site: cggR-gapA (positions -7 to +36 mutated).

For the sequence “ACAGACGAAGGAGCCGCAAAAAAATTATTAAGGGATGAATAATCCCTCATTATAAATATCTCTCACTTATTTAAA”, the “cleaved RNA product abundance” value under setting [1] worked out at 0.267.

With “CGACATGTCCCGCTTCTTTCATTAATCCGTTAGCAACTGTTTTGCTTTATAGATTTACCTTTTAAGAGGAGGAAT”, the “cleaved RNA product abundance” value under setting [2] came to 0.649.

With “CGACATGTCCCGCTTCTTTCATTAATCCGTTAGCAACAGTTTTGCTATATAAATTTACCTTTTAAGAGGAGGAAT”, under setting [2], the “cleaved RNA product abundance” value came out at 0.69.

“ACAGACGAAGGAGCCGCAAAGAAGTTATTAAAGGATGAATAATCCCTCAATATAAAAATCTCTCACTTATTTAAA”: the “cleaved RNA product abundance” value under setting [3] stood at 0.147 and the “cleaved RNA product abundance” value under setting [1] stood at 0.244.

Take “ACAGACGAAGGAGCCGCAAAGAAGTAATTAAGGGATGAATAATCCCTCAATGTAAATATCTCTCACTTATTTAAA”: under setting [1], the “cleaved RNA product abundance” value was determined as 0.114.

“ACAGACGAAGGAGCCGCAAAGAAGTAATTAAGGGATGAATAATCCCTCATTATAAATATCTCTCACTTATTTAAA”: the “cleaved RNA product abundance” value under setting [1] worked out at 0.278.

Take “CGACATGTCCCGCTTCTTTCATTAATACGTTAGCAACTTTTTTGCTATATACATTTACCTTTTAAGAGGAGGAAT”: the “cleaved RNA product abundance” value under setting [2] was found to be 0.721.

Take “CGACATGTCCCGCTTCTTTCATTAATCCGTTATCAACTGTTTTGCTATATACATTGACCTTTTAAGAGGAGGAAT”: the “cleaved RNA product abundance” value under setting [2] stood at 0.253.

As to “ACAGACGAAGGAGCCGCAAATAAGTTATTAAGGGATGAATAATCCCTCAATATATATATCTCTCACTTATTTAAA”, the “cleaved RNA product abundance” value under setting [1] turned out to be 0.9.

Consider “ACAGACGAAGGAGCCGCAAAGAAGTTTTTAACGGATGAATAATCCCTCAATATAAATATCTCTCACTTATTTAAA”, for which the “cleaved RNA product abundance” value was determined as 0.197 under setting [1] and 0.192 under setting [4].

Take “ACAGACGAAGGAGCCGCAAAGAAGTTATTCAGGGATGAATAATCCCTAAATATAAATATCTCTCACTTATTTAAA”: the “cleaved RNA product abundance” value is, setting by setting: under setting [3], 0.695; under setting [1], 0.713.

Take “ACAGACGAAGGAGCCGCAAAGAAATTATTAACGGATGAATAATCCCTCAATATAAATATCTCTCACTTATTTAAA”: the “cleaved RNA product abundance” value by setting is: under setting [3], 0.142; under setting [1], 0.168.

For the sequence “ACAGACGAAGGAGCCGCAAAGAAGTTATTAAGTGATAAATAATTCCTCAATATAAATATCTCTCACTTATTTAAA”, the “cleaved RNA product abundance” value under setting [1] was determined as 0.0999.

With “ACAGACGAAGGAGCCGCAAAGAAGTTATTAAGGGATGAATAATTCCTCAATATAAATTTCTCTCACTTATTTAAA”, the “cleaved RNA product abundance” value under setting [1] amounted to 0.625.

As to “ACAGACGAAGGAGCCGCAAAGAAGTTATTAAGGGATGAATAATCCATCTATATAAATATCTCTCACTTATTTAAA”, the “cleaved RNA product abundance” value under setting [3] stood at 0.191.

Consider “ACAGACGAAGGAGCCGCAAAGAAGTGATTAAGGGATGAATAACCCCTCAATATAAATATCTCTCACTTATTTAAA”, for which the “cleaved RNA product abundance” value under setting [1] is 0.163.

Take “ACAGACGAAGGAGCCGCACAGAAGTTATTAAAGGATGAATAATCCCTCAATATAAATATCTCTCACTTATTTAAA”: the “cleaved RNA product abundance” value under setting [3] worked out at 0.173 and the “cleaved RNA product abundance” value under setting [1] amounted to 0.177.

With “ACAGACGAAGGAGCCGCAAAGAAGTTATTAAGGGATGAATCATCCCTCAATATAAATATCTCTCACTTATTTAAA”, the “cleaved RNA product abundance” value runs as follows: under setting [3], 0.721; under setting [1], 0.902; under setting [4], 0.917.

As for “CGACATGTCCCGCTTCTTTCATTAATCCGTTAGCAACTGTTTTGCAATATAGATTTACCTTTTAAGAGGAGGAAT”, the “cleaved RNA product abundance” value under setting [2] amounted to 0.599.

In the case of “ACAGACGAAGGAGCCGCAAAGAAGTTATTAAGGGATCAATAATCACTCAATATAAATATCTCTCACTTATTTAAA”, the “cleaved RNA product abundance” value is 0.0917 under setting [3] and 0.0833 under setting [1].

As to “ACAGACGAAGGAGCCGCAAAGAAGTTATTCATGGATGAATAATCCCTCAATATAAATATCTCTCACTTATTTAAA”, the “cleaved RNA product abundance” value under setting [1] is 0.137.

Regarding “ACAGACGAAGGAGCCGCAAACAAGTTATTAAGGGATGAAAAATCCCTCAATATAAATATCTCTCACTTATTTAAA”, the “cleaved RNA product abundance” value under setting [1] came out at 0.359.
